Test results reported in the nanobody polyreactivity screen of Harvey et al. (2022).

Test: yeast display, Sf9 membrane polyspecificity reagent, FACS + sequencing; frameworks hold sequencing errors
How it was run: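 After 36–48 hours of galactose induction, yeast (Saccharomyces cerevisiae BJ5465) displaying a synthetic nanobody library were stained at 4 °C for 1 hour with 10% biotinylated, detergent-solubilized Sf9 membrane reagent. Streptavidin microbeads enriched the stained cells before FACS sorting into low and high (top ~1%) gates on anti-HA and streptavidin fluorescence. Each clone's polyreactivity label reflects its gate of origin.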
In the case of “QVHLVESGGGLVQAGGSLRLSCAASGSTFLYYAMGWYRQAPGKERELVAAISSSGGRTYYADSVKGRFTISRDNAKNTVYLQMNSLKPEDTAVYYCAADGRRTSKAGYYYWGQGTQVTVSS”, the “polyreactivity (PSR sort gate)” value is reported as “high polyreactivity”. For “QVHLVESGGGLVQAGGSLRLSCAASGSTFQWYAMGWYIQAPGKERELVATISYTGGSRTYYADSVKGRFTNSRDNAKNTVYLQMNSLKPEDTAVYDCAAESNQLFYFRRFDFWGQGTQVTVSS”, the “polyreactivity (PSR sort gate)” value was “low polyreactivity”. With “QVHLVESGGGLVQAGGSLRLSCAASGSTFRHYAMGWYRQAPGKERELVAAISSRGGRTYYADSVKGRFTISRDNAKNTGYLQMNSQKPEDTAVYYCAADRFRLYVGGWWYDYWRQGTQVTVSS” the “polyreactivity (PSR sort gate)” value was “high polyreactivity”. With “QVHLVESGGGLVQAGGSLRLSCAASGSTFSIYTMGWYRQAPGKERELVAVITKSGGSTYYADSLKGRFTISRDNAKNTVYLQMISLKPEDIAVYYCAARRRGARHDYWGQGTQVTVSS” the “polyreactivity (PSR sort gate)” value was “high polyreactivity”. With “QVHLVESGGGLVQAGGSLRLSCAASGSTFSSYAMGWYRQAPGKERELVAAINWSGTRTYYADSVKGRFTISRDNAKNTVYLQMNSLKPEDTAVYYCAAPGDGETADYDYWGQGTQVTVSS” the “polyreactivity (PSR sort gate)” value was “low polyreactivity”. With “QVHLVESGGGLVQAGGSLRLSCAASGSTFTYYAMGWYRQAPGKERELVAAITSGGSTNYADSVKGRFTISRDNAKNTVYLQMNSLKPEDTAVYYCAGDGQNFQFYVVSEEYDYWGQGTQVTVSS” the “polyreactivity (PSR sort gate)” value was “low polyreactivity”. With “QVHLVESGGGLVQAGGSLRLSCAASGSTFYRYAMGWYRQAPGKERELVAAITTSGDSTYYADSVKGRFTISRDNAKNTVYLQMNSLKPEDTAIYDCNKVGRYSSYYWGQGSQVTVSS” the “polyreactivity (PSR sort gate)” value was “high polyreactivity”. With “QVHLVESGGGLVQAGGSLRLSCAASGSTFYVNAMGWDRQAPGKERELVAAIRSSGRTNYADSVKGRFTISRDNAKNTVYLQMNSLKPEDTAVYYCAAEVPHWPYYGRLHDRDYWGQGTQVTVSS” the “polyreactivity (PSR sort gate)” value was “low polyreactivity”. In the case of “QVHLVESGGGLVQAGGSLRLSCAASGSTFYYAMGLYRKAPGKERELVASITFSTGSTYYADSVKGRFTISRDNAKNTVLLQMNSLKPEDTAVYYCATGVDTFSLSVEHDSWGQGTQVTVSS”, the “polyreactivity (PSR sort gate)” value is reported as “low polyreactivity”. With “QVHLVESGGGLVQAGGSLRLSCAASGSTIDYKAMGWYRQAPGKERELVAAITTIGGSTYYADSVKGRFTISRDNAKNTVYLQMNSLKPEDTAVYYCAADLRVWGRSGYDYWGQGTQVTVSS” the “polyreactivity (PSR sort gate)” value was “low polyreactivity”. For “QVHLVESGGGLVQAGGSLRLSCAASGSTSYVYAMGWYRKAPGKERELVAAISGSGGRTYYADSVKGRFTISRDNAKNTVYLQMNSLKPEDTAVYYCNALPRPSYPFDYWGQGTQVTVSS”, the “polyreactivity (PSR sort gate)” value was “high polyreactivity”. In the case of “QVHLVESGGGLVQAGGSLRLSCAASGTIFGINAMGWYRQAPGKERELVAGITSGGSTYYADSLKGRFTISRDNAKNTVDLQMNILKPEDTAVYYCAAVANQWYTEREYWGQGTQVTVSS”, the “polyreactivity (PSR sort gate)” value is reported as “low polyreactivity”. In the case of “QVHLVESGGGLVQAGGSLRLSCAASGYIFHVYAMGWYRQAPGKERELVAAITSSGGSKYYADSVKGRFTISRDNAKNTVYLQMNCLKPEDTAVYYCAARTRYISGRQTGYDYWGQGTQVTVSS”, the “polyreactivity (PSR sort gate)” value is reported as “high polyreactivity”. For “QVHLVESGGGLVQAGGSLRLSCAASGYIFTGYAMGCYRQAPGKERELVATINTDGDSTYYADSVKGRFTISRDNAKNTVYLQMNSLKPEDTAVYYCNKRLTQAYDDQVGYDYWGQGTQVTVSS”, the “polyreactivity (PSR sort gate)” value was “low polyreactivity”. In the case of “QVHLVESGGGLVQAGGSLRLSCAASGYRNAMGWYRQAPGKERELVAAISSGGSTYADSVKGRFTISRDNAKNTVYLQMNSLKPEDTAVYYCAAGPVPTYDYGNFDYWGQGTQVTVSS”, the “polyreactivity (PSR sort gate)” value is reported as “low polyreactivity”. For “QVHLVESGGGLVQAGGSLRLSCAASGYTFDSYAMGWYRQAPGKERELVAAISSGGRTKYADSVKGRFTISRDNAKNTVYLQMNSLKPEDTAFYYCAARRTFGVGILVGYWGQGTQVTVSS”, the “polyreactivity (PSR sort gate)” value was “high polyreactivity”. In the case of “QVHLVESGGGLVQAGGSLRLSCAASGYTFVVYAMGWYIQAPGKERELVAAINKSGGSTYYADSVKGRFTISRDHAKNSVYLQMNSLKAEDTAFYYCAADLLKLRTDYYWGQGTQVTVSS”, the “polyreactivity (PSR sort gate)” value is reported as “low polyreactivity”. With “QVHLVESGGGLVQAGGSLRLSCAASVRIISAYAMGWYRQAPGKERELVAAINGSGGSTYYADSVKGRFTISRDNAKNTVYLQMNSLKPEDTAVYYCAAKIDYPDARYFPYRYYYWGQGTQVTVSS” the “polyreactivity (PSR sort gate)” value was “high polyreactivity”. In the case of “QVHLVESGGGLVQAGGSLRLSCAATGLIFPRYAMGWSRQAPGKEREMVAAITRGGSTYYADSVKGRFTISRDNAKNTVYLQMYSLKPEDTAVYYCNADYSPSTWYLYYSLYYYWGQGTQVTVSS”, the “polyreactivity (PSR sort gate)” value is reported as “low polyreactivity”. In the case of “QVHLVESGGGLVQAGGSLRLSCAATGSTFPYNTMGWYRQAPGKERELVAAISSSGGSTYYADSVKGRFTISRDNAKNSVYLQRKSLKPEENAVYYCKAQIVASYQARRYYYWGQGTQVTVSS”, the “polyreactivity (PSR sort gate)” value is reported as “low polyreactivity”. For “QVHLVESGGGLVQAGGSLRLSCAAYGRIFKNYAMGWYRQAPGKESELVAAISWSGGRTYYADSVKGRFTISRDNAKNTVYLQMNSLKPEDTAVYYCATAARRGTSSIEPFGYGSWGQGTQVTVSS”, the “polyreactivity (PSR sort gate)” value was “high polyreactivity”. In the case of “QVHLVESGGGLVQAGGSLRLSCAAYGSIFHGNAMGWYRQAPGKERELVAAISWSGDSTYYADSVKGRFTISRDNAKNTVYLHMNSLKPEDTAVYSCNAEWTRDFYEYDYWGQGTQVTVSS”, the “polyreactivity (PSR sort gate)” value is reported as “low polyreactivity”. In the case of “QVHLVESGGGLVQAGGSLRLSCAAYGSIFRVYAMGWYRPAPGKERELVAAIDSGGSTYYADSVKGRFTISRDNAKNTVYLQMNSLKPEDTAVYYCNADRRPGGDYWGQGTQVTVSS”, the “polyreactivity (PSR sort gate)” value is reported as “low polyreactivity”. With “QVHLVESGGGLVQAGGSLRLSCAPSGSTFIRNAILWYRQAPGKDRELVAPISRSGSSTYYADSVKGRFTISRDNAKNTVYLQMNSLKPEDTAVYYCAAETDSRKARVLYDSWGQGTQVTVSS” the “polyreactivity (PSR sort gate)” value was “high polyreactivity”. For “QVHLVESGGGLVQAGGSLRLSCASYGSTLELNAMGWYRQAPGKERELVAAITSSGGRTYYADSVKGRFTISRDNAKNTVYLQMKSLKPEDTAVYYCAAEPGQQRVVDRYDYWGQGTQVTVSS”, the “polyreactivity (PSR sort gate)” value was “low polyreactivity”. With “QVHLVESGGGLVQAGGSLRLSCDASGRIFKYNAMGWYRQAPGKERELVAAISSGGSTNYADSVKGRFTISRDNAKNTVYLQMNSLKPEDTAVYDCAADGTRVSSFHYLVWLCYWGQGTQVTVSS” the “polyreactivity (PSR sort gate)” value was “low polyreactivity”. With “QVHLVESGGGLVQAGGSLRLSCDASGSIIDGYGMGWYRQAPGKERELVASITWNDGSTYYADSVKGRFTISRDNAKNTVYLQMNSLKPEDTAVYYCAADQWGYEYDYWGQGTQVTVSS” the “polyreactivity (PSR sort gate)” value was “low polyreactivity”. With “QVHLVESGGGLVQAGGSLRLSCHASGIIFKTYAMGWYRQPPGKERELVAAISSGGTTYYADSVKGRFTISRDNAKNTVYLQMNSLKPEDTAVYYCAARGYRSGGGYNYWGQGTQVTVSS” the “polyreactivity (PSR sort gate)” value was “high polyreactivity”. For “QVHLVESGGGLVQAGGSLRLSCPASGRTFYRKAMGWDRQAPGKERELVAAITSGGGTTYADSVKGRFTISRDNAKNTVYLQMNSLKPEDTAVYYCAAGRVRRRVLYNYWGQGTQVTVSS”, the “polyreactivity (PSR sort gate)” value was “high polyreactivity”. With “QVHLVESGGGLVQAGGSLRLSCSASGITFLTYTMGWYRQEPGKERELVASIRYSTGSTYYADSVKGRFTISRDNAKNTVYLQMNSLKPEDTAVYYCNDYSSYIKYDYWGQGTQVTVTS” the “polyreactivity (PSR sort gate)” value was “high polyreactivity”. For “QVHLVESGGGLVQAGGSLRLSCSASGITFTRYTMGWYRQARGKERELVASIRRSGSTNYADSVKGRFTISRDNAKNTVYLQMNSLKPEDTAVYYCAAVQTGRYYYWGQGTQVTVSS”, the “polyreactivity (PSR sort gate)” value was “high polyreactivity”. For “QVHLVESGGGLVQAGGSLRLSCSASGRIFDNYVMGWYRQAPGKERELVAAISSGGGTYYADSVKGRFTISRDNAKNTVFLQMNSLKPEDTAVYYCAKRRVYDRSFGRYDYWGQGTQVTVSS”, the “polyreactivity (PSR sort gate)” value was “low polyreactivity”. For “QVHLVESGGGLVQAGGSLRLSFAASGFTFGQNAMGWYRQAPGKEREFVATITASGSTYYADSVKGRFTISRDNAKNTVYLQMYSLKPEDTAVYYCATRYAGEYYWDYDYWGQGTQVTVSS”, the “polyreactivity (PSR sort gate)” value was “high polyreactivity”. For “QVHLVESGGGLVQAGGSLRLSFAASGRIFARYALGWYRPAPGKERELVAAITSGGSTHYADSVKGRFTIARENAKNTVYLQMNSLKPEDSAVYYCAAVYRGQRYDYWGQGTQVTVSS”, the “polyreactivity (PSR sort gate)” value was “high polyreactivity”. In the case of “QVHLVESGGGLVQAGGSLRLSFAASGRIFDLYTMGWYRQAPGKERELVAAIRWSDGSTYYADSVKGRFTISRDNAKNTVYLQMNSLKPEDTAVYYCAADTRTSYYNDDYDYWGQGTQVTVSS”, the “polyreactivity (PSR sort gate)” value is reported as “low polyreactivity”. In the case of “QVHLVESGGGLVQAGGSLRLSFAASGSTFYVNAMGWYRQAPGKERELVAAIRYSGGRTYYADSVKGRFTISRDNAKNNVYLQLNRLKPEDTAVYFCAATTYYGGLYTREFDYWGQGTQVTVSS”, the “polyreactivity (PSR sort gate)” value is reported as “low polyreactivity”. With “QVHLVESGGGLVQAGGSLRLSGAASGSTFLEYARGWYRQAPGKERELVADISSGGGTHYADSVKGRFTISRDNAKNTVYLQMNSLKPDDTAVYYCNRDISGSSGGELDYWGQGSQVTVSS” the “polyreactivity (PSR sort gate)” value was “low polyreactivity”. With “QVHLVESGGGLVQAGGSLRLSSAASGRTFRGNAMGWYRQPPGKEREFDAVISGSGGSTYYADSVKGRFTISRDNAKNTVYLQMNSLKPEDTAVYYCGDKPSRWQRYDYWGQGTQVTVSS” the “polyreactivity (PSR sort gate)” value was “high polyreactivity”. With “QVHLVESGGGLVQAGGSLRLSSAPSGSILLINAMGWYRQAPGKERELVAAIRTGGSTYYADSVKGRFTISRDNAKNTVYLQMNSLKPEDTAVYYCNVDYDVQPGGEFDYWGQGTQVTVSS” the “polyreactivity (PSR sort gate)” value was “low polyreactivity”. With “QVHLVESGGGLVQAGGSLRLSWAASGFIFKNYAMGWYRQAPGKERELVAVISRSGGSTYYADSVKGRFTISRDNAKNTVYLQMNSLKPEDTAVYYCNADRWKSGYWRYDYWGQGTQVTVSS” the “polyreactivity (PSR sort gate)” value was “low polyreactivity”. In the case of “QVHLVESGGGLVQAGGSLRLSWAASGSILRQYAMGWYRQAPGKERELVATITGDGSTNYADSVKGRFTISRDNAKNTVYLQMNSLKPQDTAVYYCITDLTYPNPNVEVMVYGFKLDYWGQGTQVTVSS”, the “polyreactivity (PSR sort gate)” value is reported as “low polyreactivity”. With “QVHLVESGGGLVQAGGSLRLTCAASGFIFQWYAMGWYRQAPGKERELVAAINSSGSTNYADSVKGRFTISRDNAKNSGYLQRNILKPEDTAVYYCAAHWRYGRKFDYWGQGTQVTVSS” the “polyreactivity (PSR sort gate)” value was “high polyreactivity”. In the case of “QVHLVESGGGLVQAGGSLSLSCAASGLNFRTYAMGWYRQAPGKERELVAAISSSGGSTYYADSVKGRFTISRDNAKNTVYLQMNSLKPEDTAVYYCNVGSRRRRYLDRYEYWGQGTQVTVSS”, the “polyreactivity (PSR sort gate)” value is reported as “high polyreactivity”.
